Patent publication US20240197834A1, “PHARMACEUTICAL COMPOSITION FOR PREVENTING OR TREATING CHRONIC RENAL DISEASE INCLUDING GLUCAGON DERIVATIVE” (HANMI PHARM. CO., LTD., priority 2021, published 2024)
Bridge positions count the residues as written; N and C are the ends. Square brackets hold non-standard residues; d marks the D form. Ends that are not written are not given here. Aib = CC(C)(N)C(=O)O

Experiment: pI of native glucagon and glucagon derivatives
Format: physicochemical
Description: Accordingly, as described in Table 1 below, a native glucagon and glucagon derivatives having equivalent activity thereto were first prepared. Referring to WO 2016/108586, WO 2017/003191, and WO 2018/004283, the glucagon derivatives were synthesized, and pl and in vitro activity thereof were measured.

Row | Sequence | pl
1 | HSQGTFTSDYSKYLDCDRAQDFVQWLMNT (glucagon derivative) [SEQ ID NO: 2] | 4.56
2 | HSQGTFTSDYSKYLDCERAQDFVQWLMNT (glucagon derivative) [SEQ ID NO: 3] | 4.66
3 | HSQGTFTSDYSKYLDSCDAQDFVQWLMNT (glucagon derivative) [SEQ ID NO: 4] | 4.13
4 | HSQGTFTSDYSKYLDSCEADDFVQWLMNT (glucagon derivative) [SEQ ID NO: 6] | 4.03
5 | HSQGTFTSDYSKYLDSCEAQDFVQWLMNT (glucagon derivative) [SEQ ID NO: 5] | 4.22
6 | SQGTFTSDYSKYLDECRAKEFVQWLMNT (lactam 15-19) [SEQ ID NO: 32] | 4.78
7 | WXQGTFTSDYSKCLDERRAKDFVQWLMNT (W[Aib]QGTFTSDYSKCLDERRAKDFVQWLMNT; lactam 16-20) [SEQ ID NO: 30] | 4.44
8 | WXQGTFTSDYSKYCDERRAKEFVQWLMNT (W[Aib]QGTFTSDYSKYCDERRAKEFVQWLMNT; lactam 16-20) [SEQ ID NO: 34] | 6.21
9 | WXQGTFTSDYSKYLDECRAKDFVQWLMNT (W[Aib]QGTFTSDYSKYLDECRAKDFVQWLMNT; lactam 16-20) [SEQ ID NO: 26] | 4.68
10 | WXQGTFVSDYSKYLDECRAKDFVQWLMNT (W[Aib]QGTFVSDYSKYLDECRAKDFVQWLMNT; lactam 16-20) [SEQ ID NO: 28] | 4.68
11 | YSQGTFTSDYSKYLDSCEADDFVQWLMNT (glucagon derivative) [SEQ ID NO: 7] | 3.71
12 | YXQGTFCSDYSKYLDERRAKDFVQWLMNT (Y[Aib]QGTFCSDYSKYLDERRAKDFVQWLMNT; lactam 16-20) [SEQ ID NO: 41] | 6.03
13 | YXQGTFCSDYSKYLDERRAKEFVQWLMNT (Y[Aib]QGTFCSDYSKYLDERRAKEFVQWLMNT; lactam 16-20) [SEQ ID NO: 38] | 6.15
14 | YXQGTFCSDYSKYLDSRRAQDFVQWLMNT (Y[Aib]QGTFCSDYSKYLDSRRAQDFVQWLMNT) [SEQ ID NO: 42] | 6.03
15 | YXQGTFTSDCSKYLDERRAKEFVQWLMNT (Y[Aib]QGTFTSDCSKYLDERRAKEFVQWLMNT; lactam 16-20) [SEQ ID NO: 36] | 6.21
16 | YXQGTFTSDCSKYLDSRRAQDFVQWLMNT (Y[Aib]QGTFTSDCSKYLDSRRAQDFVQWLMNT) [SEQ ID NO: 43] | 6.03
17 | YXQGTFTSDYSCYLDEKRAKEFVQWLMNT (Y[Aib]QGTFTSDYSCYLDEKRAKEFVQWLMNT) [SEQ ID NO: 45] | 4.78
18 | YXQGTFTSDYSCYLDSRRAQDFVQWLMNT (Y[Aib]QGTFTSDYSCYLDSRRAQDFVQWLMNT) [SEQ ID NO: 13] | 4.43
19 | YXQGTFTSDYSKCLDEKRAKEFVQWLMNT (Y[Aib]QGTFTSDYSKCLDEKRAKEFVQWLMNT; lactam 16-20) [SEQ ID NO: 24] | 6.21
20 | YXQGTFTSDYSKCLDERRAKDFVQWLMNT (Y[Aib]QGTFTSDYSKCLDERRAKDFVQWLMNT; lactam 16-20) [SEQ ID NO: 29] | 6.15
21 | YXQGTFTSDYSKYCDEKRAKEFVQWLMNT (Y[Aib]QGTFTSDYSKYCDEKRAKEFVQWLMNT; lactam 16-20) [SEQ ID NO: 23] | 6.20
22 | YXQGTFTSDYSKYCDERRAKEFVQWLMNT (Y[Aib]QGTFTSDYSKYCDERRAKEFVQWLMNT; lactam 16-20) [SEQ ID NO: 35] | 6.2

Row | Sequence | pl
23 | YXQGTFTSDYSKYLCEKRAKEFVQWLMNT (Y[Aib]QGTFTSDYSKYLCEKRAKEFVQWLMNT; lactam 16-20) [SEQ ID NO: 19] | 8.12
24 | YXQGTFTSDYSKYLCEKRAQDFVVWLMNT (Y[Aib]QGTFTSDYSKYLCEKRAQDFVVWLMNT) [SEQ ID NO: 15] | 6.11
25 | YXQGTFTSDYSKYLDCKRAKEFVQWLMNT (Y[Aib]QGTFTSDYSKYLDCKRAKEFVQWLMNT; lactam 17-21) [SEQ ID NO: 31] | 8.12
26 | YXQGTFTSDYSKYLDCKRAKEFVQWLMNT [SEQ ID NO: 14] (Y[Aib]QGTFTSDYSKYLDCKRAKEFVQWLMNT) | 8.12
27 | YXQGTFTSDYSKYLDCRRAQVFVQWLMRT (Y[Aib]QGTFTSDYSKYLDCRRAQVFVQWLMRT) [SEQ ID NO: 16] | 9.11
28 | YXQGTFTSDYSKYLDCVRAQDFVQWLMRT (Y[Aib]QGTFTSDYSKYLDCVRAQDFVQWLMRT) [SEQ ID NO: 17] | 6.03
29 | YXQGTFTSDYSKYLDECRAKEFVQWLMNT (Y[Aib]QGTFTSDYSKYLDECRAKEFVQWLMNT; lactam 16-20) [SEQ ID NO: 20] | 4.78
30 | YXQGTFTSDYSKYLDEKCAKEFVQWLMNT [SEQ ID NO: 11] (Y[Aib]QGTFTSDYSKYLDEKCAKEFVQWLMNT) | 4.78
31 | YXQGTFTSDYSKYLDEKCAKEFVQWLMNT [SEQ ID NO: 21] (Y[Aib]QGTFTSDYSKYLDEKCAKEFVQWLMNT; lactam 16-20) | 4.78
32 | YXQGTFTSDYSKYLDEKRAKCFVQWLMNT (Y[Aib]QGTFTSDYSKYLDEKRAKCFVQWLMNT; lactam 16-20) [SEQ ID NO: 25] | 8.12
33 | YXQGTFTSDYSKYLDEKRAKEFVQWLMNTC (Y[Aib]QGTFTSDYSKYLDEKRAKEFVQWLMNTC; lactam 16-20) [SEQ ID NO: 12] | 6.20
34 | YXQGTFTSDYSKYLDEKRCKEFVQWLMNT (Y[Aib]QGTFTSDYSKYLDEKRCKEFVQWLMNT; lactam 16-20) [SEQ ID NO: 22] | 6.20
35 | YXQGTFTSDYSKYLDERRAKEFVQWLMNTC (Y[Aib]QGTFTSDYSKYLDERRAKEFVQWLMNTC; lactam 16-20) [SEQ ID NO: 37] | 6.21
36 | YXQGTFTSDYSKYLDSCDADDFVVWLINT (Y[Aib]QGTFTSDYSKYLDSCDADDFVVWLINT) [SEQ ID NO: 10] | 3.66
37 | YXQGTFTSDYSKYLDSCDAQDFVQWLINT (Y[Aib]QGTFTSDYSKYLDSCDAQDFVQWLINT) [SEQ ID NO: 8] | 3.77
38 | YXQGTFTSDYSKYLDSCDAQDFVVWLINT (Y[Aib]QGTFTSDYSKYLDSCDAQDFVVWLINT) [SEQ ID NO: 9] | 3.77
39 | YXQGTFTSDYSKYLDSRRACDFRLWLMNT (Y[Aib]QGTFTSDYSKYLDSRRACDFRLWLMNT) [SEQ ID NO: 18] | 8.15
40 | YXQGTFTSDYSKYLDSRRAQDFVQWLMNT (X non-natural residue; glucagon derivative; (2) Xaa is aminoisobutyric acid (Aib)) [SEQ ID NO: 33] | 6.04
41 | YXQGTFTSDYSKYLDSRRAQDFVQWLMNTC (glucagon derivative; (2) Xaa is aminoisobutyric acid (Aib)) [SEQ ID NO: 44] | 6.21
42 | YXQGTFVSDCSKYLDERRAKDFVQWLMNT (Y[Aib]QGTFVSDCSKYLDERRAKDFVQWLMNT; lactam 16-20) [SEQ ID NO: 39] | 6.15
43 | YXQGTFVSDYSKYLDECRAKDFVQWLMNT (Y[Aib]QGTFVSDYSKYLDECRAKDFVQWLMNT; lactam 16-20) [SEQ ID NO: 27] | 4.68
44 | YXQGTFVSDYSKYLDERRAKDFVQWLMNTC (Y[Aib]QGTFVSDYSKYLDERRAKDFVQWLMNTC; lactam 16-20) [SEQ ID NO: 40] | 6.15
